In a protein production outcome set (Wang et al. 2014):

Experiment: label from the status in PepcDB records

Sequence | protein production
MMNKNKTLEYYNKNADNFAKTTINVDFYETQNRFSTLLPEHGYILDFGCGSGRDTKYFLDQGFYVDATDGSEEMCHIASNYTGIQVRRLLFEELDENKKYDGIWACSSILHLPKNELKAVFMKMLKALKEDGIIYTSFKYGDFEGERNGRYFTDFTEKTFEEFVGEIDNLQLKEEWITGDVRPGRGEEKWLNVILQKN | failed
KIADWLELHPAEKRKPWCVGIPRLAELAWQRVVAQRDTFGEAQLAHRIRDYLPEQGQLFVGNSLVVRLIDALSQLPAGYPVYSNRGASGIDGLLSTAAGVQRASAKSTLAIVGDLSALYDLNALALLRQVSAPFVLIVVNNNGGQIFSLLPTPQSKRERFYLMPQNVHFDHAAAMFNLRYHRPENWEELESALAGAWRTPATTVIELVVNDTDGAQTLQQLLAQVSHL | failed
MIHWRNCLASAVPKLAVIAHDLIQVWVCWVALHAARYSMLVHPPGLPYVDWRTLVVLIAQAVVFWRVGLYRGLWRFASVPDLWNIFKSAFSGLIVIVLVLSVTRFEGVPLSVLVVYPFALSVLLGMPRLLYRAWKDYQLIHPVDSSERVLILGAGRTAEALVRDMRRTGAFVPVGFIDDAVYLRGAKIQGLNVLGRLEEVSTIARETAAKLLVIAIPSLDAAGMQRVVAMCESTGLPFRMVPKLIDVLEGRTLPCQLKEVSIEDLLNRKPVIPDWRLIRSWLSGKTVMVTGGGGSIGSEVCRQCARHGASRVVIVEIDELALLTIHSDLRRLFPDIEVLPILGDCGDAAVIAHALRCVRPDAVFHAAAYKQVPLLEEQLREAVRNNVLATENVARHCVAAKIQTFVFISTDKAVEPVNVLGATKRYAEMVCQSFDAKSTGTRFVTVRFGNVLDSAGSVVPLFREQIRQGGPVTVTHPDVTRYFMTISEACQLILQAAALASHGAIYTLDMGEPVRINLLAEQMIRLAGKQPGRDIVIVYTGLRPGEKMHETLFYADENYRPTAHPNILEADVRTFPQEQVLQSVMRLREAVQHYDTVEIESVISMLMPDFHAARHKKETRFETVVPFPAREVRRL | failed
MKEDYFAEDPKFFNKKLRPKNLDEILKFLKEKFILNDEDKIILITSGGTKVPLEKIEIRNIDNFSTGKRGTLICEYFLKINKKVIFLHRKGSYIPFEYHLKDLAKMENLKVEENNIRFNLTKENERNILIDNLQNYKMYYNNLFLISYDTIFEYGFYLIEISNLLNELMINKYQNTFLLKNIYHKLKQEHNINNLLLYEIFYSTNNILNDMLLFFMSIQNKKCSEISKHQNTSYKLYYKLLLFLNLRFDVYSNNQFFINIQLFFKYIFSLLSNIIQMKEKYNIQQEEIQNIILYIQMLIKNFNSNVLQNNINEQEVIHNNININNIKEEQIIPNNIKNIHNNDNINHCDDNKINNPDNHLLNTDTYILHNNNPSCNDYNLNNLSFNINKYINEEKGKNKKTNQHISEQFLFPTHLVIMCAAASDFYIPYDEMHENKIDSNYSPLSIQLCLTPKFYKIINSHFPLLKYCIFKLEDEEKILIDKSNERIKYTDLLIANLLTQRYDYVYIFKKQFEYVLLKKSNSEQIENDICYEICKHFSIL | failed
MKLKWWQRLLPRSAFSQTVLLIGCLLLINQLVSYVTVAVYVLKPSYQQINQLIARQINLLFVDGIDIGREHLTIVDALNAKVRDDGMKVYNQQQAREAGIEQATYYGFWSSQMTEYLGGDAEVRVTHGRVLQVWIRPPQAPSVWIKVPLIGQNVSDLSPLTLYLMVIGALSVAGGWWFARQQNRPLRRLQKAAISVSRGEFPDPLPLKGSSELVEVTNAFNQMAHSMKQLEQDRALLMAGISHDLRTPLTRIRLASEMMVEDDQYLKDGIVNDIEDMDAIISQFIAYIRQDQEASREPGQINKLIQDIAQAEANRDGEIELALADCPEALFQGLAIKRVLSNLVENAFRYGSGWVRISSQFDGKRIGFSVEDNGPGIDESQIPTLFQPFTQGDIARGSVGSGLGLAIIKRIIDRHQGQITLSNRAAGGLKAQVWLPRE | failed
PSVQVPQSTILYASDGSKLGETNYGEKRYWVPLKDMNPTIVKATVAIEDQNFYDHHGFDYKRMAGAALADLKAFAKVQGASTITQQYARNLYLEHDKTWKRKWNEAFYTIRLEQNYSKDEILEGYLNTIYYGHGAYGIEAASRLYFGKHAKNLTDAEAALLAGIPKGPSGY | failed
MTFEDLHEYLDYLAKKNDLVTITEEVDPNLDLTYILSEEERMGRGRTILFKNVKGSQVPAVGNLFSTNEKLKAVLGDDPYSIGVKIADIVKPPRDSESFIGKGLEMMRELSGLRPKVSNSIPSGYSELEKVDLYRYPICKTWPDDGGPFITLPLVITKDPSTGIRNMGMYRMQVYDSETTGMHWHIHKGGSENFLKEKEKGKAMDVAVVIGSDPLTIFSAVAPLPNGIDEFMFRGLISRKRSELVKGKTVDLEYPRNFEIVLEGYIDPSETRVEGPFGDHTGYYSLEEEFPVFHVKNIIERNDRIYPTTIVGKLWHEDVVLGKAVERMFLPLIQMVLPEVVDINTMEEAVFHNMVIVSIKKRYPGHAKKVMFALWGLGQLMFSKIIVVVDDDINIHNRKELIWAMTTRIDPDRDVIIIPGTVTDSLDHAAPLFNYGSKMGIDATKKDKSEGYTRRWPDVLEMPKDVVDKVRQIMKNNRLIQLEHHHHHH | failed
MRARPYPTSTYFVSTADGRLPAMSQPIAAPFRQQLLDLVARIPPGRVMTYGQLALLAGQPGAARQAGAVMHSLKDSDLPWQRVINAQGRVSTYKVGLGEVQEGLLRAEGIEFDDAGRCDLSRYQWWPDENAANIAQRLL | failed
NILKIRCAPVTWPIGMGKNFKGVYHILNDEIYLFEAGGERLPHEFDIIKGIDNPELEQRFPLEIQQLRDEIELVQAASNEFNLDEFLAGELTPVFFGSAINNFGIQEILNSLIDWAPAPKPRDATVRMVEPDEPKFSGFIFKIQANMDPKHRDRIAFLRVCSGKFERGMKMKHLRINREIAASSVVTFMSHDRELVEEAYAGDIIGIPNHGNIQIGDSFSEGEQLAFTGIPFFAPELFRSVRIKNPLKIKQLQKGLQQLGEEGAVQVFKPMSGADLILGAVGVLQFEVVTSRLANEYGVEAVFDSASIWSARWVSCDDKKKLAEFEKANAGNLAIDAGGNLAYLAPNRVNLGLTQERWPDIVFHETREHSVKL | failed
VTSDNAAFEGTFKEMFRRHAAGVAIITVNYNGTPYGFTATSVASLSAQPPRFTFNMARSSSSWPAIANTTHIGVHMLGLDNQELADRFARTKNRFEGDHWELGPYEVPILKDVAGWLIGKIQMRLSFENNAVVVVEVVEGQVGEDGTPLLYHSGAYSQPVPLDYEI | not failed
MKAESSNESFIIGQRVHSLNDSRRVGTVKYVGDVEGYSGTWIGVDWDQDGDGKHNGSVNGVFYFNGRSQSSASFVRSQNLSRGITLLQALELRYRTISTKDEEDEMYVLSAGNRRVSIQLLGGDKIQDKLSRFEELTSASLSYLGVSSLGVSSDLGSILPNLKLLDLTGNLISDWEEIGALCEQLPALTTLNLSCNSLSSDIKSLPQLKNIRVLVLNNSGLSWTQVEILRRSLPGIEELHLMGNMISTITSTSSSDDQAFNSLRLLNLDDNCISDWSEVLKLSQLPCLEQLYLNKNKLSRIFQSVNGTESSEKGSDPFPSLSCLLLGANNIGDLASVDALNGFPQLVDIRLSENPISDPVRGGVPRFVLVARLTKVQVLNGSEVRAREKKDSEIRYVRMVMSKLNDKSGEIELLHPRFYELKKLHGIEDERASAENSGPKNIASGLISITLKCVGPSMGEKPHLTKKLPGSITVGKLKILSENFFKLKSIKPRLFLQEEGSPFPTALDDETATLLDVGICDGSTLLVDEES | failed
MLAGGAARRLGGADKPGLRVGGRPLLDRVLAACAGARRTVVVADPRPTARPVTWAREDPPGGGPLAALAAGLRHTTAEYVLVASADLPFLAGPTVGRLLSALAAGDADGVLLTDADGRDQPLVAAYRAPALRRELAALARNRAGRGERADGAQLTGLPLRRLTGALRLTRVPDAVAAFDCDTWDDLATARARIREHGHVLDEWISAAKDELGIDLDVDTGILLDLARDAAHGVARPAAPLTTFLVGYAAGRAGGGPEAVAETARKAAALAQRWAEEAADTGSAPARGKPDVAPDATPDTRPDA | failed
